Experimental findings from patent US20240400689A1 (ANTENGENE BIOLOGICS, published 2024) are described below.

The target in assay [1] is T1, human CD276 protein (human, UniProt Q5ZPR3 29-534).
T1 construct: whole, on cells; for SKOV3 and the other cancer lines the protein is the cells' own; also called B7-H3; B7H3
T1 sequence (looked up): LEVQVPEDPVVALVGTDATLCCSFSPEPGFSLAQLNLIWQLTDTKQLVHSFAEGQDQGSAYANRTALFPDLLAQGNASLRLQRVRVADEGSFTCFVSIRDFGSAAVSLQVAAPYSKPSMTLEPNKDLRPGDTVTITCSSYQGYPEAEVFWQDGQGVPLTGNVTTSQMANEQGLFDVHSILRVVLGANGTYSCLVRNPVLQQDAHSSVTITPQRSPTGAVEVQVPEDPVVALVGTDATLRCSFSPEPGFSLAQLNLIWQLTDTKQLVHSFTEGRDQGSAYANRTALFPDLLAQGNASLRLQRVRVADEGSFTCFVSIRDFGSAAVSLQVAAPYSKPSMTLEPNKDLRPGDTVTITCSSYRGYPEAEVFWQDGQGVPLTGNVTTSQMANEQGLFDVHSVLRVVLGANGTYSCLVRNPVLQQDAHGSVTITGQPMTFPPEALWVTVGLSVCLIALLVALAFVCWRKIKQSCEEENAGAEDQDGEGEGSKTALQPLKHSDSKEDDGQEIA
Kind of assay: FACS on CHO-S-hCD276 cells. As to the method: (§1) Screening & Expansion—The subcloning plates were screened by protein or cell-based Elisa, and the subclones with good binding ability were expanded to 24-wells for confirmation tests. The specificity and cross-reactivity of these subclones were confirmed with FACS analysis. Briefly, parental CHO-S cells, CHO-S-hCD276, CHO-S cell line stably over-expressing Macaca fascicularis CD276, CHO-K1 S, cell line stably over-expressing mouse CD276 were incubated with antibodies produced by each subclone respectively. Fluorescent dye-conjugated secondary antibody was used to detect the binding of the primary antibody with the cells. Median fluorescence intensity was measured by FACS analysis.

The target in another assay is T2, mouse CD276 protein (mouse, UniProt Q8VE98 29-316).
T2 construct: whole, on cells; also called mCD276; CHO-S-mCD276
T2 sequence (looked up): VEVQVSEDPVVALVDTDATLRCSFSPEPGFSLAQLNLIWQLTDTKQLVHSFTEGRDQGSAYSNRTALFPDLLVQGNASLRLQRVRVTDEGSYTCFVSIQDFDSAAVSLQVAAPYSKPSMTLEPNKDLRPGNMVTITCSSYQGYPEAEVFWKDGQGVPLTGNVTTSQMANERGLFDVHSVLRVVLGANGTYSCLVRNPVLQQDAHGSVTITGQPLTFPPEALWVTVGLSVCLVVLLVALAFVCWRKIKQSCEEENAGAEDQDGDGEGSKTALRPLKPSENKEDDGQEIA
Put plainly: FACS on CHO-S-mCD276 cells. As to the method:
as §1

Assay [2] has as its target T3, Macaca fascicularis CD276 (Macaca fascicularis).
T3 construct: whole, on cells; also called cynomolgus monkey CD276; cynoCD276
Kind of assay: FACS on CHO-S-cynoCD276 cells. As to the method:
as §1

In assay [3] the target is T1, human CD276 protein. Kind of assay: FACS on SKOV3 cells. The source says: Sequences of 31 mouse antibodies from Table 5 were selected to generate and produce human IgG1 chimeric antibodies. The binding affinity of these antibodies and bench mark antibody, Enoblituzumab (see U.S. Pat. No. 8,802,091, MGA271, specifically with a construct designated as hBRCA84D-2) and MGC018 (an antibody-drug-conjugate, in which the mAb MGA017 (human IgG1) is conjugated via a cleavable linker to the prodrug seco-DUocarmycin hydroxyBenzamide Azaindole (DUBA), an alkylating agent that can damage DNA in both dividing and non-dividing cells, thereby causing cell death) with human patient derived ovarian cancer cell line, SKOV3, was determined by FACS analysis.
1. Digested cells using Trypsin (1×); Centrifuged the harvested cells at 300 g for 3 min and discarding the supernatant. […] 2. Washed the cells 2 times with FACS buffer by centrifuging at 300 g for 3 min and discarding the supernatant. [0445] 3. […] Kept the cells in dark for FACS analysis.

B1: 8-B4-F5-E11 (antibody, V domains shown)
VH: QVQLQQPGAELVKPGASVKLSCKASGDTFTSYWMHWVKQRPGQGLEWIGMIHPDSGTRNYNEKVMSKATLNVDKSSSTAYLHLSSLTSEDSAVYYCSRSYGSRLAWFAYWGQGTLVTVSA
VL: QAVVTQESALTTSPGETVTLTCRSSTGAVTTSNFANWVQEKPDHLFTGLIGGTNNRAPGVPARFSGSLIGDKAALTITGAQTEDEAVYFCALWYTNHFIFGSGTKVTVL
notes: mouse monoclonal antibody (hybridoma)
As to B1, the “FACS MFI” value with human CD276 protein [1] came to 40400; with mouse CD276 protein it was 7370; in assay [2] it was 58600.

B2: 30-C7-C11-D4 (antibody, V domains shown)
VH: EVQLVESGPGLVKPSQSLSLTCTVTGYSITSDYAWNWIRQFPGNKLEWMGYISHSGSTSYNPSLKSRISITRDTSKNQFFLQLNSVTTEDTATYYCARSLGRRWYFDVWGAGTTVTVSS
VL: DIVMTQSPSSLAMSVGQKVTLSCKSSQSLLNSSTQKNYLAWYQQKPGQSPKLLVYFASTRDSGVPDRFIGSGSGTEFTLTISSVQAEDLADYFCQQHYIIPFTFGAGTKLEIK
notes: as for B1
As to B2, the “FACS MFI” value amounted to 138000 with human CD276 protein [1], 8220 with mouse CD276 protein and 96300 in assay [2].

B3: 30-E2-G7-G7 (antibody, V domains shown)
VH: EVQLQESGGGLVKPGGSLKLSCAASGFTFSYYAMSWVRQTPEKRLEWVATINGDGSHTYYPDSVRGRFTISRDNAKNTLYLQVSSLRSEDTAMYYCASLLQLGPFWGQGTTLTVSS
VL: DIVMTQSQKFMSTSVGDRVSVTCKASQNVGTNVAWYHQRPGQSPKPLIYSASYRYSGVPDRFTGSGSGTDFTLTISNVQSEDLAEYFCQQYNNYPLTFGSGTKLEIK
notes: as for B1
As for B3, the “FACS MFI” value came out at 47000 in the assay with human CD276 protein [1], 1300 with mouse CD276 protein and 35100 in assay [2].

B4: 6-H11-G5-D8 (human IgG1 chimeric antibody) (antibody, V domains shown)
VH: EVQLQESGPELVKPGTSVKLSCKASGYTFTSYDINWVRQRPEQGLEWIGWIFPGNGDTYYNEKFKGKATLTSDKSSSTAYMQLSRLTSEDSAVYFCARDLRLGTFDYWGQGTTLTVSS
VL: QIVLTQSPEIMSASPGEKVTMTCSASSSVSYIHWYQQKSGTSPKRWIYDTSKLASGVPARFSGSGSGTSYSLTIRSMEAEDAATYYCQQGSSNPRTFGGGTKLELK
notes: human IgG1 chimeric antibody of the mouse clone
As a reminder, the EC50 is the concentration that produces a half-maximal response. High values mean lower potency in that assay, low ones higher potency in that assay. Take B4: in the assay with human CD276 protein [3], the 50% effective concentration (EC50) was 1.78 µg/mL and the “MFI (Max)” value is 200.

B5: 20-F8-B5-G2 (antibody, V domains shown)
VH: EVQLQESGPSLVKPSQTLSLTCSVTGDSITSAYWNWIRKFPGNKLEYMGYISNSGSTYYNPSLKSRISITRDTSKNQYYLQLNSVTTEDTGTYYCVRGERYYGYGAYWGQGTLVTVSA
VL: DIVMTQATPSVPVTPGESISISCRSSKSLLHSNGNTYLYWFLQRPGQSPQLLIYRMSNLASGVPDRFSGSGSGTAFTLRISRVEAEDVGVYYCMQHLEYPFTFGAGTKLELK
notes: as for B1
Regarding B5, the entries for the “FACS MFI” value (with human CD276 protein [1]; in the assay with mouse CD276 protein; in assay [2]) were 88800, 67000 and 51100, respectively.

B6: 8-C3-E3-F3 (antibody, V domains shown)
VH: EVQLVESGGGLVQPGGSLKLSCAASGFTFSNYGLSWVRLTPDKRLEVVATIGSYGGNTYYPDSVKGRFTISRDNAKNTLYLQMSSLKSEDTAIYYCARDIYYGNSEAWFAYWGQGTLVTVSA
VL: DIVMTQAAFSNPVTLGTSASISCRSSKSLLHSNGITYLYWYLQKPGQSPQLLIYQMSNLASGVPDRFSSSGSETDFTLRISRVEAEDVGVYYCAQNLELPWTFGGGTKLEIK
notes: as for B1
For the molecule B6, the “FACS MFI” value with human CD276 protein [1] was 63900; with mouse CD276 protein, 1320; in assay [2], 12100.

B7: 10-G6-C4-B2 (antibody, V domains shown)
VH: EVQLVESGGGLVQPGGSLRLSCATSGFTLSDYYMSWVRQPPGKAPEWLGFMRNKANGYTTEYSASVRGRFTISRDTSQSIIYLQMNTLRAEDGATYYCVRDRDGRPFAYWGQGTLVTVSA
VL: DIVMTQSPSSLTVTAGEKVTMSCKSSQSLLNSINQKNFLTWYQQKPGQPPKLLIYWASTRESGVPDRFTGSGSGTDFTLTISSVQAEDLAIYYCQNDYTYPLTFGTGTKLELK
notes: as for B1
Turning to B7, the entries for the “FACS MFI” value (with human CD276 protein [1]; with mouse CD276 protein; in assay [2]) were 5650, 17400 and 4320, respectively.

B8: 9-B9-H11-G7 (antibody, V domains shown)
VH: DVQLQESGPGLVKPSQSLSLTCSVTGYSITSGYYWNWIRQFPGNKLEWMVYISYDGTNNYNPSLKNRISITRDTSKNQFFLKLNSVTTEDTATYYCARGDSNSYYFDYWGQGTTLTVSS
VL: QAVVTQESALTTSPGGTVILTCRSSTGAVTTSNYANWVQEKPDHLFTGLIGGTSNRAPGVPVRFSGSLIGDKAALTITGAQTEDDAMYFCALWYRTHYVFGGGTKVTVL
notes: as for B1
For B8, the “FACS MFI” value with human CD276 protein [1] worked out at 96800; with mouse CD276 protein it was 1360; in assay [2], 146000.

B9: 9-G12-D6-A11 (antibody, V domains shown)
VH: DVQLQVSGPGLVKPSQSLSLTCSVAGYSITSDYYWNWIRQFPGNKLEWMGYISYDGTNNYNPSLKNRISITRDTSKGQFFLKFNSVTTEDTATYYCARGKDGSYYFDYWGQGTTLTVSS
VL: QAVVTQESALTTSPGGTVILTCRSSTGAVTTSNYANWVQEKPDHLFTGLIGGTSNRAPGVPVRFSGSLIGDKAALTITGAQTEDDAMYFCALWYRTHYVFGGGTMVTVL
notes: as for B1
B9: the results for the “FACS MFI” value (with human CD276 protein [1]; with mouse CD276 protein; in assay [2]) were 53200, 1420 and 35700, respectively.

B10: 13-E4-G9-A4 (antibody, V domains shown)
VH: EVMLVESGGGLVKPGGSLKFSCAASGFTFITYAMSWVRQTPEKRLEWVATISGGGIDTYYPDSVKGRFTISRDNAKNTLYLQVNSLRSEDTAMYYCTRQGSQGWGAMDYWGQGTSVTVSS
VL: QIVLTQSPPIMSASPGERVTMTCRASSRVSFMHWYQQKSGTSPRRWIYETSKLASGVPDRFSGSVSGTSYSLTISSMEAEDAATYYCQQWSSNPLTFGAGTKLELK
notes: as for B1
For the molecule B10, the figures for the “FACS MFI” value (with human CD276 protein [1]; with mouse CD276 protein; in assay [2]) were 149000, 1370 and 16800, respectively.

B11: 25-C8-D7-C5 (antibody, V domains shown)
VH: EVQLQESGGGLVKPGGSLKFSCAASGFTFSTYAMSWVRQTPEKRLEWVATISGGGIDTYYPDSVKGRFTISRDNAKNTLYLQMNSLRSEDTAMYYCARQGSKGWGAMDYWGQGTSVTVSS
VL: QIVLTQSPAIMSASPGEKVTMTCRASSSVSFMHWYQQKSGTSPKRWIYETSKLASGVPDRFSGSGSGTSYSLTISSMEAEDAATYYCQQWSSNPLTFGAGTKLELK
notes: as for B1
Take B11: the “FACS MFI” value with human CD276 protein [1] was determined as 148000; with mouse CD276 protein, 1160; in assay [2], 39100.

B12: 15-G1-D1-E3 (antibody, V domains shown)
VH: QVQLQQPGAELVKPGTSVKLSCKASGYTFTSYWIHWVKQRPGQGLEWIGMIHPKSGTVDYNEKFKSKATLTADKSSNTAYMQLSSLTSEASVVYYCARGENYDYRPQFVYWGQGTLVTVSA
VL: QLVLTQSSSASFSLGASAKLTCTLSSQHSTYTIEWYQQQPLKPPKYVMELKKDGSHRTGDGIPDRFSGSSSGADRYLSISNIQPEDEAIYICGVGDTIKEQFVYVFGGGTKVTVL
notes: as for B1
Turning to B12, the entries for the “FACS MFI” value (with human CD276 protein [1]; with mouse CD276 protein; in assay [2]) were 62500, 6610 and 99400, respectively.

B13: 10-B9-D10-A12 (antibody, V domains shown)
VH: EVQLQESGPELVRPGVSVKISCKGSGYTFTDYTMHWVKLSHAKSLEWIGVISTYYGNTNYNQKFKGKATLTVDKSSSTAYMELARLTSEDSAIYYCARASYGSGYGPYYWYFDVWGAGTTVTVSS
VL: DIQMTQSPASLFASVGETVTITCRASEKIYSYLAWYFQKQGKSPQFLVYNANALAEGVPSRFSGSGSGTQFSLKINSLQPEDFGTYYCQHHYGTPVTFGAGSKLELK
notes: as for B1
As for B13, the entries for the “FACS MFI” value (with human CD276 protein [1]; in assay [2]) were 400000 and 10100, respectively.
